Here are results for seven molecules from patent publication US8969053B2, “Mutant YqhD enzyme for the production of a biochemical by fermentation” (Metabolic Explorer, priority 2009, dated 2015).

One data set has as its system YqhD (purified). The note with it: furfural reductase study, Miller et al (2009); read-out: Km value for NADPH; cited from earlier work.
Data set [1] relates to YqhD double mutant D99Q N147H. The note with it: versus parent YqhD, Li et al, 2008; cited from earlier work.
A further data set relates to YqhD single mutant Q202A. The settings on record: versus parent YqhD, Li et al, 2008; cited from earlier work.
Data set [2] deals with T1, Escherichia coli MG1655 YqhD, native (wild type), SEQ ID NO: 56 (Escherichia coli, UniProt Q46856).
T1 construct: made in house; host or cells: E. coli MG1655 ΔyqhD::Km carrying pTRC99A-yqhD
T1 sequence (Q46856 1-387): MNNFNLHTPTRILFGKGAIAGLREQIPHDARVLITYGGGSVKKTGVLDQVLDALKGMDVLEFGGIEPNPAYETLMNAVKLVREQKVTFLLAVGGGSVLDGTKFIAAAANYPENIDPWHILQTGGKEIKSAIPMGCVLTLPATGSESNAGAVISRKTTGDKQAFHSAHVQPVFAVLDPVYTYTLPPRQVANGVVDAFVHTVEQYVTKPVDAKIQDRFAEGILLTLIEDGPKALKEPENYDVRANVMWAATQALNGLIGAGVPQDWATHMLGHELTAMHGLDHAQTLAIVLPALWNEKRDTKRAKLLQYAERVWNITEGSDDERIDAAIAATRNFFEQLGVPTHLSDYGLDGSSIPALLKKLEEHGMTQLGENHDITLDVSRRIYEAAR
Put plainly: inhibition by NADP+, native YqhD. Type of data set: biochemical, E. coli. The procedure: (§1) Methylglyoxal reductase activity was assayed by measuring the initial rate of NADPH oxidation with a spectrophotometer at a wavelength of 340 nm and at a constant temperature of 37° C. The reaction mixture using methylglyoxal as substrate was carried out in 20 mM Hepes pH 7.5, 0.1 mM Zinc sulphate, 0.2 mM NADPH, 0.6 μg of purified enzyme in a final volume of 1 ml. The reaction mixture was incubated for 5 min at 37° C. and then the reaction was initiated by the addition of the substrate methylglyoxal at a final concentration of 10 mM. Control assay (blank), lacking the substrate was run in parallel and the value measured for the control was subtracted to the value measured for the assay to take into account non-specific oxidation of NADPH.
(§2) The NADP+ inhibition constant for three purified enzymes (yqhD, yqhD*(G149E) and yqhD*(G149S A286T)) were determined in the conditions described for the activity assay, excepted for the concentration of methylglyoxal that was increased to 20 mM. […] Five concentrations of the inhibitor NADP+ were used (0-0.05-0.1-0.2-0.5 mM) and the kinetics were recorded for each condition of inhibition. The NADP+ inhibition constant (Ki) of each protein was determined with the module enzyme kinetic from the software Sigma Plot (Systat Software Inc, San Jose, Calif.). […]

Data set [3] concerns the target T2, E. coli YqhD variant YqhD*(G149E) (Escherichia coli, UniProt Q46856, G149E).
T2 construct: made in house; host or cells: E. coli MG1655 ΔyqhD::Km carrying pTRC99A-yqhD*(G149E)
T2 sequence (Q46856 1-387 G149E): T1 sequence (Q46856 1-387) with G149E
Description: inhibition by NADP+, YqhD*(G149E). Type of data set: biochemical. The procedure: as §1, §2

Data set [4] deals with T3, E. coli YqhD variant YqhD*(G149S A286T) (Escherichia coli, UniProt Q46856, A286T/G149S).
T3 construct: made in house; host or cells: E. coli MG1655 ΔyqhD::Km carrying pTRC99A-yqhD*(G149S)(A286T)
T3 sequence (Q46856 1-387 G149S/A286T): T1 sequence (Q46856 1-387) with G149S, A286T
Put plainly: inhibition by NADP+, YqhD*(G149S A286T). Type of data set: biochemical. The protocol:
as §1, §2

Data set [5] is described as follows: Methylglyoxal reductase activity assay, kinetics of purified YqhD enzymes toward methylglyoxal. Type of data set: biochemical, E. coli. The settings on record: for Kinetic parameters (Km, kcat, kcat/Km) compared to the native protein / Specific activity compared to that of YqhD: in words. The protocol: as §1
(§3) One unit of enzyme activity was defined as the amount of enzyme that consumed 1 μmol substrate per minute under the conditions of the assay. Specific enzyme activity was expressed as units per mg of protein.
Kinetic constants (Km, kcat and kcat/Km) for the four purified enzymes (yqhD, yqhD*(G149E), yqhD*(G149S) and yqhD*(G149S A286T)) toward methylglyoxal were determined using the activity assay previously described. In this case the reaction was started by addition of the purified enzyme. Seven methylglyoxal concentrations between 1.3 mM and 30 mM were analysed for each enzyme. For all kinetics, initial velocity was determined in triplicate for all substrate concentrations.
Kinetic constants (Km and Vmax) of each protein were determined with the module enzyme kinetics from the software Sigma Plot (Systat Software Inc, San Jose, Calif.). […] The different kinetic parameters of four YqhD enzymes were compiled in Table 6.

Data set [6] in a line: Methylglyoxal reductase activity assay, kinetics of purified YqhD enzymes toward co-factor NADPH. Type of data set: biochemical, E. coli. The procedure: as §1, §3
Kinetic constants (Km, kcat and kcat/Km) for the four purified enzymes (yqhD, yqhD*(G149E), yqhD*(G149S) and yqhD*(G149S A286T)) toward methylglyoxal were determined using the activity assay previously described. In this case the reaction was started by addition of the purified enzyme. Nine NADPH concentrations between 6 μM and 300 μM were analysed for each enzyme. For all kinetics, initial velocity was determined in triplicate for all co-factor concentrations.
Kinetic constants (Km and Vmax) of each protein were determined with the module enzyme kinetics from the software Sigma Plot (Systat Software Inc, San Jose, Calif.). […] The different kinetic parameters of four YqhD enzymes were compiled in Table 7.

The nature of data set [7]: Inhibition of the YqhD enzymes by NADP+ (competitive inhibition model). Type of data set: biochemical, E. coli. The note with it: NADP+ inhibition experiment, 20 mM methylglyoxal. The procedure: as §1
The NADP+ inhibition constant for three purified enzymes (yqhD, yqhD*(G149E) and yqhD*(G149S A286T)) were determined in the conditions described for the activity assay, excepted for the concentration of methylglyoxal that was increased to 20 mM. Enzyme kinetics with regards to NADPH were realised with increasing concentration of NADPH between 50 and 200 μM. Five concentrations of the inhibitor NADP+ were used (0-0.05-0.1-0.2-0.5 mM) and the kinetics were recorded for each condition of inhibition. The NADP+ inhibition constant (Ki) of each protein was determined with the module enzyme kinetic from the software Sigma Plot (Systat Software Inc, San Jose, Calif.). A model of competitive inhibition was fitted by the software.

Substrate in data set [8]: CC(=O)C=O
Description: purified protein, by the assay type. The settings on record: other: methylglyoxal 1.3-30 mM, 0.2 mM NADPH, pH 7.5, 37° C.

Substrate in data set [9]: NC(=O)C1=CN([C@@H]2O[C@H](COP(=O)(O)OP(=O)(O)OC[C@H]3O[C@@H](n4cnc5c(N)ncnc54)[C@H](OP(=O)(O)O)[C@@H]3O)[C@@H](O)[C@H]2O)C=CC1
Put plainly: purified protein, by the assay type. The note with it: other: NADPH 6-300 μM, 10 mM methylglyoxal, pH 7.5, 37° C.

Numbering of substitutions follows the chain as printed. Names may count otherwise. “And” between values parts separate entries of the source, which are not always exact repeats. Identical values can stand only once.

Usually Km stands for the substrate concentration at which the rate is half of its maximum. For `NC(=O)C1=CN([C@@H]2O[C@H](COP(=O)(O)OP(=O)(O)OC[C@H]3O[C@@H](n4cnc5c(N)ncnc54)[C@H](OP(=O)(O)O)[C@@H]3O)[C@@H](O)[C@H]2O)C=CC1` [NADPH], in the data set on YqhD (purified), the Km was 8 µM.
Consider `O=CCCO` [3-HPA, 3-hydroxypropionaldehyde], for which, in data set [1], the “affinity (Km) for 3-HPA” value is on record as “improved affinity (lower Km)” and the “catalytic efficiency (Kcat/Km) for 3-HPA” value is listed as “improved catalytic efficiency”. Moreover, in the data set on YqhD single mutant Q202A, the “affinity (Km) for 3-HPA” value is “improved affinity (lower Km)” and the “catalytic efficiency (Kcat/Km) for 3-HPA” value is “improved catalytic efficiency”.
Broadly, the Ki is a measure of affinity in units of concentration, obtained from inhibition or displacement. The low end stands for a stronger hold on the target, the high end for a looser hold on the target. For `NC(=O)c1ccc[n+]([C@@H]2O[C@H](COP(=O)([O-])OP(=O)(O)OC[C@H]3O[C@@H](n4cnc5c(N)ncnc54)[C@H](OP(=O)(O)O)[C@@H]3O)[C@@H](O)[C@H]2O)c1` [NADP+], the Ki in [2] came out at 68 µM; in data set [3] it was 28 ± 5 µM; in [4], 16 ± 2.5 µM.

B1: E. coli YqhD variant YqhD*(G149S A286T) (Escherichia coli K-12; A286T/G149S) (protein)
chain: T1 sequence (Q46856 1-387) with G149S, A286T
Broadly, the kcat is the number of substrate molecules converted per active site and unit of time at saturation. What is called kcat/Km is the second-order rate constant that governs catalysis at low substrate concentration. Turning to B1, in data set [5], the Specific activity amounted to 2.69 ± 0.10 µmol/min/mg; the “Specific activity as share of the specific activity of YqhD” value amounted to 69%; the “Kinetic parameters (Km, kcat, kcat/Km) compared to the native protein” value is given as “identical to the native protein”. In addition, in [6], the Specific activity worked out at 3.17 ± 0.02 µmol/min/mg. Moreover, the Specific activity in data set [7] is 5.25 ± 0.183 µmol/min/mg. Further, in data set [8], the Km was 3.28 ± 0.38 mM, the kcat turned out to be 1.89 ± 0.07 s⁻¹ and the kcat/Km was found to be 577 ± 88 M⁻¹ s⁻¹. For the same molecule, in data set [9], the Km was determined as 20 ± 2.2 µM; the kcat came to 2.2 ± 0.1 s⁻¹; the kcat/Km is 1.22 E+05 M−1s−1 and 1.13E+05 ± 1.3E+04 M−1s−1.

B2: E. coli YqhD variant YqhD*(G149E) (Escherichia coli K-12; G149E) (protein)
chain: T1 sequence (Q46856 1-387) with G149E
Turning to B2, in data set [5], the Specific activity is 7.65 ± 0.31 µmol/min/mg and the “Specific activity compared to that of YqhD” value is on record as “almost doubled”. In addition, in [6], the Specific activity turned out to be 4.86 ± 0.08 µmol/min/mg. Further, the Specific activity in [7] amounted to 5.53 ± 0.292 µmol/min/mg. Besides, in data set [8], the Km is reported as 7.80 ± 0.79 mM, the kcat turned out to be 5.38 ± 0.21 s⁻¹ and the kcat/Km is 689 ± 98 M⁻¹ s⁻¹. In [9], the Km worked out at 28 ± 1.8 µM, the kcat is 3.4 ± 0.1 s⁻¹ and the kcat/Km worked out at 122000 ± 9800 M⁻¹ s⁻¹.

B3: E. coli YqhD variant YqhD*(G149S) (Escherichia coli K-12; G149S) (protein)
chain: T1 sequence (Q46856 1-387) with G149S
Turning to B3, in [5], the Specific activity came out at 3.80 ± 0.12 µmol/min/mg; the “Kinetic parameters (Km, kcat, kcat/Km) compared to the native protein” value is recorded as “identical to the native protein”; the “Specific activity compared to that of YqhD” value was “similar”. In addition, the Specific activity in data set [6] is 3.78 ± 0.15 µmol/min/mg. Also, in data set [8], the Km worked out at 3.37 ± 0.34 mM, the catalytic constant (kcat) was 2.67 ± 0.09 s⁻¹ and the kcat/Km was found to be 792 ± 105 M⁻¹ s⁻¹. Moreover, in [9], the Km was 22 ± 3.7 µM, the turnover number (kcat) came out at 2.7 ± 0.1 s⁻¹ and the kcat/Km stood at 122000 ± 25000 M⁻¹ s⁻¹.

B4: Escherichia coli MG1655 YqhD, native (wild type), SEQ ID NO: 56 (Escherichia coli K-12) (protein)
chain: T1 sequence (Q46856 1-387)
On to B4, for which the Specific activity in [5] was 3.91 ± 0.11 µmol/min/mg; in data set [6], 2.99 ± 0.1 µmol/min/mg; in data set [7], 3.63 ± 0.284 µmol/min/mg. The Km in data set [8] was found to be 4.81 ± 0.41 mM; in data set [9] it was 32 ± 4.2 µM. For the same molecule, the kcat in data set [8] amounted to 2.74 ± 0.08 s⁻¹; in [9], 2.1 ± 0.1 s⁻¹. In addition, the kcat/Km in data set [8] was 570 ± 65 M⁻¹ s⁻¹; in data set [9], 66000 ± 11000 M⁻¹ s⁻¹.
